Measurements: patent US20250145706A1 (SINABIOSOLUTION, published 2025)
Substitutions are numbered along the chain they refer to.

Assays:
[1] = molecular target: T1, soluble recombinant version of the IGLV3-21^R110-harboring B-cell receptor (monomeric human IgM, 170.5 kDa) (human); assay: BLI (Octet), antibody captured on anti-human IgG Fc sensor, soluble BCR as analyte, 1:1 model
T1 construct: Produced in 293-HEK cells by transient expression as monomeric human IgM; It was the analyte in solution in the BLI assay; also called soluble IGLV3-21^R110 B-cell receptor; soluble BCR-fragment
Description: (§1) Kinetic assays were performed by first immobilizing the anti IGLV3-21^R110 antibodies onto biosensors through an indirect capturing reagent, anti-human IgG Fc antibody. Anti IGLV3-21^R110 antibodies were loaded at a concentration of […] to generate an anti IGLV3-21^R110 antibody capture level of between 0.30 and 0.34 nm. […] The anti IGLV3-21^R110 antibody capture biosensors were then submerged in wells containing the different concentrations of the soluble BCR-fragment for 900 seconds (association stage) followed by a dissociation step of 1200 seconds in running buffer. Steps were performed at a constant shake speed of 1000 rpm. All reagents were used as described by the manufacturer. Sensorgrams were generated after double reference correction (buffer and blank sensors) to compensate for both the natural dissociation of the capture anti IGLV3-21^R110 antibody and also non-specific binding of the soluble BCR-fragment to the sensor surface. […] (KD) were calculated based on the ratio of association (kₐ) and dissociation rate (kd) constants, obtained by fitting sensorgrams with a first order 1:1 binding model using the Fortebio Data Analysis software (Satorius).

[2] = molecular target: T1, soluble recombinant version of the …; assay: BLI (Octet), reference HC0-LC0
Description: as §1
For the KD values of all humanized antibodies, see Table 3.

T1 sequence (heavy, as listed by the source limits assumed, chain 1 of 2): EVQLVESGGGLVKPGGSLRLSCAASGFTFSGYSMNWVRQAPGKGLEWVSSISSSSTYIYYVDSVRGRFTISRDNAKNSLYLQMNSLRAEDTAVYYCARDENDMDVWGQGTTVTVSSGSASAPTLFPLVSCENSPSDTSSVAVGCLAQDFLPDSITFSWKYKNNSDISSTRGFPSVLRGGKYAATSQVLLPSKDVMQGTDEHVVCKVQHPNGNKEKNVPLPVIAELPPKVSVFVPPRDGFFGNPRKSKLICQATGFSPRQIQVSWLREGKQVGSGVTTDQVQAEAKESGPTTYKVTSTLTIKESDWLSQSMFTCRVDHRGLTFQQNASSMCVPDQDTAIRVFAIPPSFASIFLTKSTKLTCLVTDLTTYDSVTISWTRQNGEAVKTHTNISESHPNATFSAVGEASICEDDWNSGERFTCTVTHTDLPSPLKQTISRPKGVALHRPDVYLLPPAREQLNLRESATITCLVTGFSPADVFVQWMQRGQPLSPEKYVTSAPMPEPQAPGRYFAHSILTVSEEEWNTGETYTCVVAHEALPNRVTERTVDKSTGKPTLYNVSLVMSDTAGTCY
T1 sequence (light, as listed by the source limits assumed, chain 2 of 2): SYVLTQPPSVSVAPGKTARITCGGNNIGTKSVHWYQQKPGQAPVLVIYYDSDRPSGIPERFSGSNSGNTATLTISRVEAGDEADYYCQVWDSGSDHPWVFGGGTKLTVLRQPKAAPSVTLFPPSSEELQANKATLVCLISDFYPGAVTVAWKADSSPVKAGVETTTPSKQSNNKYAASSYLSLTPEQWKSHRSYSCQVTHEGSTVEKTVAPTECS

B1: HC7-LC6 (antibody, human IgG1, kappa, V domains shown)
VH: QVQLQESGPGLVKPSETLSLTCTVSGFSLTSYGIHWIRQSPGRGLEWIGVIWRGGGTDSNAAFMSRITISRDTSKTQVSLKLGSVTAADTAIYYCARSRYDEEESMNYWGQGTSVTVSS
VL: EIVLTQSPSSLSASVGDSVTITCRASGNIHSYLAWYQQKPGKAPKLLIYNAKTLADGVPSRFSGSGSGTQYTLTISSLQPEDFATYYCQHFWNTPPTFGAGTKLELKR
notes: Humanized IgG1 / kappa
B1 was tested, and the Kd [1] was 175 pM and the “fold of the dissociation constant against chimeric antibody HC0-LC0” value [2] was no more than 2 fold.

B2: HC7-LC8 (antibody, human IgG1, kappa, V domains shown)
VH: B1 VH
VL: EIVLTQSPATLSLSPGERATLSCRASGNIHSYLAWYQQKPGQAPRLLIYNAKTLADGIPARFSGSGSGTDYTLTISSLEPEDFASYYCQHFWNTPPTFGAGTKLELKR
notes: Humanized IgG1 / kappa
Work on B2 yielded a Kd [1] of 249 pM.

B3: HC7-LC7 (antibody, human IgG1, kappa, V domains shown)
VH: B1 VH
VL: B1 VL with E1Q, V3Q, S10F, K45Q, Q70E
notes: Humanized IgG1 / kappa
Binder B3 has a Kd [1] of 269 pM.

B4: HC7-LC9 (antibody, human IgG1, kappa, V domains shown)
VH: B1 VH
VL: B2 VL with A9G, A60D, S77R, S85V
notes: Humanized IgG1 / kappa
Binder B4 has a Kd [1] of 313 pM.

B5: HC0-LC0 (antibody, human IgG1, kappa, V domains shown)
VH: QVQLQQSGPGLVQPSQSLSITCTVSGFSLTSYGIHWVRQSPGKGLEWLGVIWRGGGTDSNAAFMSRLSITKDNSKSQVFFKMNSLQADDTAIYYCARSRYDEEESMNYWGQGTSVTVSS
VL: QIVLTQSPASLSASVGETVTITCRASGNIHSYLAWYQQKQGKSPQLLVYNAKTLADGVPSRFSGSGSGTQYSLKINSLQPEDFGSYYCQHFWNTPPTFGAGTKLELKR
notes: Chimeric: mAb01-01 VH/VL on human IgG1 / human Ig kappa constant domains; also called chimeric antibody HC0-LC0; HC01 LC01
Binder B5 has a Kd [1] of 121 pM.
